The record followed here is article PMC2649420 (The Journal of biological chemistry, 2008).

For the test, the target named is Sbi-III-IV (amino acids 150-266), domains III and IV of Sbi (S. aureus strain Mu50, UniProt Q99RL2 150-266). In words: SPR. Background: In SPR one partner is held on a chip, and binding of the other changes the refractive index at the surface.

B1: C3a anaphylatoxin (domain or fragment)
chain: not shown
Consider B1, for which the Kd (in general, the free concentration of one partner at which half of the binding sites on the other are occupied at equilibrium, for simple one-to-one binding) came out at 19.8 µM. This counts as double-digit micromolar.
